Experimental findings from paper PMC3445780 are described below.

Broadly, the Kd is the constant that tells how readily two partners part at equilibrium. Low values mean higher affinity, high ones lower affinity.

In this assay the target is EphB4 receptor (UniProt P54760). The assay can be described thus: SPR. A general note: Surface plasmon resonance follows binding to a sensor surface in real time, without labels.
Sequence of UniProt P54760 (P54760 16-987): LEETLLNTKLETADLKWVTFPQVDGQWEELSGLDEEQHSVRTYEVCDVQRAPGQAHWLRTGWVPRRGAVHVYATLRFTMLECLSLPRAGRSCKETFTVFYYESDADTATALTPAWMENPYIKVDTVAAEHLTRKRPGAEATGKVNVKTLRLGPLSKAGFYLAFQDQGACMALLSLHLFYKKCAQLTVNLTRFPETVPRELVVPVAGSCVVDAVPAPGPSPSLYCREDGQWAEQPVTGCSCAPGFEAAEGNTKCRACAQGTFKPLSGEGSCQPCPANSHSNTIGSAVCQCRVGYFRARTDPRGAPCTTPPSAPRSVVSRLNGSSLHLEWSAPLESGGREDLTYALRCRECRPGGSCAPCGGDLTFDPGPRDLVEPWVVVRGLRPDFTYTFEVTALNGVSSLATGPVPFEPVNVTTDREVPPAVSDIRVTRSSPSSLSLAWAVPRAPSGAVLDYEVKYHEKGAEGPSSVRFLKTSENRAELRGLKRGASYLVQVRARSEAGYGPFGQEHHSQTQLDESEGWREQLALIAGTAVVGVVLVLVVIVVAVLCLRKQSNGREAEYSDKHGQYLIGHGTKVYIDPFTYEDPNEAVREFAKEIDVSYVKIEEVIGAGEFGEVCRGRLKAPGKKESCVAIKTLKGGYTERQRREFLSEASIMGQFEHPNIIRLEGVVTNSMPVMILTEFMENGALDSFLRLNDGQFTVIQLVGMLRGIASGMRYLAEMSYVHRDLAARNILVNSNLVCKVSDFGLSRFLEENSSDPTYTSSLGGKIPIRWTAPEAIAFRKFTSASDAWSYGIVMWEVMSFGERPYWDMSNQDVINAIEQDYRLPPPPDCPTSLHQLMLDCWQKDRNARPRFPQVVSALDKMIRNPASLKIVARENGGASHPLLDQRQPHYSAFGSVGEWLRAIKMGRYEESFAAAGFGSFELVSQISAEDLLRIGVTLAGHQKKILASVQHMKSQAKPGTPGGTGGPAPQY

Take cyclic peptide c(TNYL-RAW): the Kd came out at 4.4 nM.
